Experimental data published in US20180264102A1.

Experiments:
[1] = molecular target: Hoc- Soc- bacteriophage T4 capsid (Soc binding sites) (bacteriophage T4) (UniProt P04535)
[2] = molecular target: Hoc- Soc- bacteriophage T4 capsid (Soc binding sites) (bacteriophage T4) (UniProt P04535); test: in vitro binding to Hoc- Soc- T4 phage, SDS-PAGE

| Substance | Kd [1] [nM] | percent occupancy of the 870 Soc binding sites [1] [%] | ratio of antigen molecules to Soc binding sites at saturation (antigen molecules : Soc binding sites) [2] |
| --- | --- | --- | --- |
| F1mutV-Soc (66 kDa) recombinant protein with RB49 Soc | 298 | 75 | 20 |
| Soc-PA (93 kDa) recombinant protein with RB49 Soc | 737 | 42 | 20 |
